Laboratory results as given in patent publication US20170355730A1.
Starred links: 1 amine or outer side, 2 acyl side, 3 side chain; linkers in the order of their positions; H or OH if unused. Non-standard residues stand in square brackets, D forms with d. Primed or numbered codes have the meaning given here. No end group written: not given here. Trimesoyl = O=C(c1cc(C(=O)[*:2])cc(C(=O)[*:3])c1)[*:1]; dPhe(4-CN) = N#Cc1ccc(C[C@@H](N)C(=O)O)cc1; d(pT) = C[C@H](OP(=O)(O)O)[C@@H](N)C(=O)O; Phe(4-F) = N[C@@H](Cc1ccc(F)cc1)C(=O)O; 2Nal = N[C@@H](Cc1ccc2ccccc2c1)C(=O)O; Pip′ = L-homoproline (pipecolyl); D‑4‑Phe = not defined here; Pip = O=C(O)[C@@H]1CCCCN1; d4Phe = not defined here; Dap = NC[C@H](N)C(=O)O; βAla = NCCC(=O)O; Sar = CNCC(=O)O

B1: peptide 18 (Table 18) (peptide)
peptide: Trimesoyl-P[Sar][dD][Pip′][2Nal]RV[dA][Dap]F[2Nal]RRRR[Dap]K-NH2
modifications: linker (positions not given here) via Trimesoyl; not fully specified (some residues, bridges); printed as bicyclo[Tm-(Pro-Sar-D-Asp-Pip-Nal-Arg-Val-D-Ala)-Dap-(Phe-Nal-Arg-Arg-Arg-Arg-Dap)]-Lys
B2: peptide 39 (Table 18) (peptide)
peptide: Trimesoyl-[D‑4‑Phe][Phe(4-F)][dI][Pip′][2Nal]RA[dF][Dap]F[2Nal]RRRR[Dap]K
modifications: linker (positions not given here) via Trimesoyl; not fully specified (C-terminus, bridges); printed as bicyclo[Tm-(D-4-Phe-Fpa-D-Ile-Pip-Nal-Arg-Ala-D-Phe)-Dap-(Phe-Nal-Arg-Arg-Arg-Arg-Dap)]-Lys; reading uncertain
B3: peptide 10 (Table 18) (peptide)
peptide: Trimesoyl-P[Sar][dD][Pip′][2Nal]R[Dap]F[2Nal]RRRR[Dap]K-NH2
modifications: linker (positions not given here) via Trimesoyl; not fully specified (some residues, bridges); printed as bicyclo[Tm-(Pro-Sar-D-Asp-Pip-Nal-Arg)-Dap-(Phe-Nal-Arg-Arg-Arg-Arg-Dap)]-Lys
B4: peptide 41 (Table 18) (peptide)
peptide: Trimesoyl-[d4Phe][Phe(4-F)][dhGlu][Pip][2Nal]RA[dF][Dap]F[2Nal]RRRR[Dap]K
modifications: linker (positions not given here) via Trimesoyl; not fully specified (bridges); printed as bicyclo[Tm-(D-4-Phe-Fpa-D-homoGlu-Pip-Nal-Arg-Ala-D-Phe)-Dap-(Phe-Nal-Arg-Arg-Arg-Arg-Dap)]-Lys; reading uncertain
B5: peptide 44 (Table 18) (peptide)
peptide: Trimesoyl-[dF][Phe(4-F)][dT][Pip′][2Nal]RA[dF][Dap]R[2Nal]RFRR[Dap]K
modifications: linker (positions not given here) via Trimesoyl; not fully specified (C-terminus, bridges); printed as bicyclo[Tm-(D-Phe-Fpa-D-Thr-Pip-Nal-Arg-Ala-D-Phe)-Dap-(Arg-Nal-Arg-Phe-Arg-Arg-Dap)]-Lys
B6: peptide 38 (Table 18) (peptide)
peptide: Trimesoyl-[dPhe(4-CN)][Phe(4-F)][dT][Pip′][2Nal]RA[dF][Dap]F[2Nal]RRRR[Dap]K
modifications: linker (positions not given here) via Trimesoyl; not fully specified (C-terminus, bridges); printed as bicyclo[Tm-(D-4-CyanoPhe-Fpa-D-Thr-Pip-Nal-Arg-Ala-D-Phe)-Dap-(Phe-Nal-Arg-Arg-Arg-Arg-Dap)]-Lys
B7: peptide 46 (Table 18) (peptide)
peptide: [dA][Sar][d(pT)][Pip′][2Nal]YQK
modifications: lactam (positions not given here); not fully specified (C-terminus, bridges); printed as cyclo(D-Ala-Sar-D-pThr-Pip-Nal-Tyr-Gln)-Lys
B8: peptide 35 (Table 18) (peptide)
peptide: Trimesoyl-[D‑2‑Fpa][Phe(4-F)][dT][Pip′][2Nal]RA[dF][Dap]F[2Nal]RRRR[Dap]K
modifications: linker (positions not given here) via Trimesoyl; not fully specified (C-terminus, bridges); printed as bicyclo[Tm-(D-2-Fpa-Fpa-D-Thr-Pip-Nal-Arg-Ala-D-Phe)-Dap-(Phe-Nal-Arg-Arg-Arg-Arg-Dap)]-Lys
B9: peptide 27 (Table 18) (peptide)
peptide: Trimesoyl-[dF][Phe(4-F)][dT][Pip′][2Nal]RA[dF][Dap]F[2Nal]RRRR[Dap]K-NH2
modifications: linker (positions not given here) via Trimesoyl; not fully specified (some residues, bridges); printed as bicyclo[Tm-(D-Phe-4-Fpa-D-Thr-Pip-Nal-Arg-Ala-D-Phe)-Dap-(Phe-Nal-Arg-Arg-Arg-Arg-Dap)]-Lys
B10: peptide 36 (Table 18) (peptide)
peptide: Trimesoyl-[D‑3‑Fpa][Phe(4-F)][dT][Pip′][2Nal]RA[dF][Dap]F[2Nal]RRRR[Dap]K
modifications: linker (positions not given here) via Trimesoyl; not fully specified (C-terminus, bridges); printed as bicyclo[Tm-(D-3-Fpa-Fpa-D-Thr-Pip-Nal-Arg-Ala-D-Phe)-Dap-(Phe-Nal-Arg-Arg-Arg-Arg-Dap)]-Lys
B11: peptide 14 (Table 18) (peptide)
peptide: Trimesoyl-P[Sar][dD][Pip′][2Nal]R[βAla][dA][Dap]F[2Nal]RRRR[Dap]K-NH2
modifications: linker (positions not given here) via Trimesoyl; not fully specified (some residues, bridges); printed as bicyclo[Tm-(Pro-Sar-D-Asp-Pip-Nal-Arg-β-Ala-D-Ala)-Dap-(Phe-Nal-Arg-Arg-Arg-Arg-Dap)]-Lys
B12: peptide 16 (Table 18) (peptide)
peptide: Trimesoyl-P[Sar][dD][Pip′][2Nal]RA[dA][dA][Dap]F[2Nal]RRRR[Dap]K-NH2
modifications: linker (positions not given here) via Trimesoyl; not fully specified (some residues, bridges); printed as bicyclo[Tm-(Pro-Sar-D-Asp-Pip-Nal-Arg-Ala-D-Ala-D-Ala)-Dap-(Phe-Nal-Arg-Arg-Arg-Arg-Dap)]-Lys
B13: peptide 17 (Table 18) (peptide)
peptide: Trimesoyl-P[Sar][dD][Pip′][2Nal]RY[dA][Dap]F[2Nal]RRRR[Dap]K-NH2
modifications: linker (positions not given here) via Trimesoyl; not fully specified (some residues, bridges); printed as bicyclo[Tm-(Pro-Sar-D-Asp-Pip-Nal-Arg-Tyr-D-Ala)-Dap-(Phe-Nal-Arg-Arg-Arg-Arg-Dap)]-Lys
B14: peptide 15 (Table 18) (peptide)
peptide: Trimesoyl-P[Sar][dD][Pip′][2Nal]R[βAla][βAla][Dap]F[2Nal]RRRR[Dap]K-NH2
modifications: linker (positions not given here) via Trimesoyl; not fully specified (some residues, bridges); printed as bicyclo[Tm-(Pro-Sar-D-Asp-Pip-Nal-Arg-β-Ala-β-Ala)-Dap-(Phe-Nal-Arg-Arg-Arg-Arg-Dap)]-Lys
B15: peptide 12 (Table 18) (peptide)
peptide: Trimesoyl-[dF][Phe(4-F)][dT][Pip′][2Nal]R[Dap]F[2Nal]RRRR[Dap]K-NH2
modifications: linker (positions not given here) via Trimesoyl; not fully specified (some residues, bridges); printed as bicyclo[Tm-(D-Phe-Fpa-D-Thr-Pip-Nal-Arg)-Dap-(Phe-Nal-Arg-Arg-Arg-Arg-Dap)]-Lys
B16: peptide 43 (Table 18) (peptide)
peptide: Trimesoyl-[dF][Phe(4-F)][dT][Pip′][2Nal]RA[dF][Dap]RR[2Nal]FRR[Dap]K
modifications: linker (positions not given here) via Trimesoyl; not fully specified (C-terminus, bridges); printed as bicyclo[Tm-(D-Phe-Fpa-D-Thr-Pip-Nal-Arg-Ala-D-Phe)-Dap-(Arg-Arg-Nal-Phe-Arg-Arg-Dap)]-Lys
B17: peptide 22 (Table 18) (peptide)
peptide: Trimesoyl-P[Sar][dD][Pip′][2Nal]RR[dF][Dap]F[2Nal]RRRR[Dap]K-NH2
modifications: linker (positions not given here) via Trimesoyl; not fully specified (some residues, bridges); printed as bicyclo[Tm-(Pro-Sar-D-Asp-Pip-Nal-Arg-Arg-D-Phe)-Dap-(Phe-Nal-Arg-Arg-Arg-Arg-Dap)]-Lys
B18: peptide 45 (Table 18) (peptide)
peptide: Trimesoyl-[dF][Phe(4-F)][dT][Pip′][2Nal]RA[dF][Dap][dR]R[dR]R[2Nal][dF][Dap]K
modifications: linker (positions not given here) via Trimesoyl; not fully specified (C-terminus, bridges); printed as bicyclo[Tm-(D-Phe-Fpa-D-Thr-Pip-Nal-Arg-Ala-D-Phe)-Dap-(D-Arg-Arg-D-Arg-Arg-Nal-D-Phe-Dap)]-Lys
B19: peptide 42 (Table 18) (peptide)
peptide: Trimesoyl-[dF][Phe(4-F)][dT][Pip′][2Nal]RA[dF][Dap]RRRR[2Nal]F[Dap]K
modifications: linker (positions not given here) via Trimesoyl; not fully specified (C-terminus, bridges); printed as bicyclo[Tm-(D-Phe-Fpa-D-Thr-Pip-Nal-Arg-Ala-D-Phe)-Dap-(Arg-Arg-Arg-Arg-Nal-Phe-Dap)]-Lys
B20: peptide 11 (Table 18) (peptide)
peptide: Trimesoyl-[dF][Phe(4-F)][dT][Pip][2Nal]RA[Dap]F[2Nal]RRRR[Dap]K
modifications: linker (positions not given here) via Trimesoyl; not fully specified (C-terminus, bridges); printed as bicyclo[Tm-(D-Phe-Fpa-D-Thr-Pip-Nal-Arg-Ala)-Dap-(Phe-Nal-Arg-Arg-Arg-Arg-Dap)]-Lys; also: FITC on C-terminal Lys side chain (FA labeling)

Biological target: Pin1 (Example 6, construct not stated) (human) (UniProt Q13526)
Assay: fluorescence anisotropy

First: B1
Second: B2
The Kd of the first is 3.8-fold higher: 1750 nM for the first, 460 nM for the second. The second binds more tightly here.

First: B3
Second: B4
The Kd of the first is 3.9-fold higher: 3420 nM for the first, 870 nM for the second.

B5 and B6 are within 1.5-fold of each other in Kd: 450 nM for the first, 350 nM for the second.

First: B7
Second: B8
The Kd of the first is 2.5-fold lower: 240 nM for the first, 590 nM for the second.

B9 and B10 are within 1.5-fold of each other in Kd: 270 nM for the first, 390 nM for the second.

B11 and B12 are within 1.5-fold of each other in Kd: 1750 nM for the first, 2490 nM for the second.

First: B13
Second: B14
The Kd of the first is 2.2-fold lower: 2170 nM for the first, 4830 nM for the second.

First: B15
Second: B16
The Kd of the first is 1.7-fold higher: 2360 nM for the first, 1380 nM for the second. The second binds more tightly here.

Going from B17 to B18, the Kd rises from 480 nM to 3100 nM (6.5-fold). The first binds more tightly here.

B19 and B20 are within 1.5-fold of each other in Kd: 980 nM for the first, 900 nM for the second.

B9 showed a fold improvement of binding affinity against peptide 4 of 2 fold.

B17 gave a fold increase of Pin1 inhibitory activity on substitution of D-Phe for D-Ala of 2 fold.
